Test results from publication PMC6561022, “β-Lactam Antibiotics Enhance the Pathogenicity of Methicillin-Resistant Staphylococcus aureus via SarA-Controlled Lipoprotein-Like Cluster Expression”.

T1: SarA-his (Staphylococcus aureus N315, UniProt Q7A732 1-124)
T1 sequence: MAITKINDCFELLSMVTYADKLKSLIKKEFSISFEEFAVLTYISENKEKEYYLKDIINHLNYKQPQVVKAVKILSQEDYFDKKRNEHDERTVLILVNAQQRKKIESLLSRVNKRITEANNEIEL

B1: lpl-PM (GC-rich SarA box mutant) (dsDNA)
DNA 1: CCACGAGGGGGGGGGCGGGGGGGTTCCTCTAGTATTATTAATATTGGAATTTGAAC
DNA 2: GTTCAAATTCCAATATTAATAATACTAGAGGAACCCCCCCGCCCCCCCCCTCGTGG
B2: lpl-P (lpl cluster promoter, SarA box) (dsDNA)
DNA 1: CCACGAGGATTTAATCATAAAATTTCCTCTAGTATTATTAATATTGGAATTTGAAC
DNA 2: GTTCAAATTCCAATATTAATAATACTAGAGGAAATTTTATGATTAAATCCTCGTGG

Molecular target: T1, SarA-his
Assay: EMSA; SarA-his 0-240 pM (so in the source), 10 pmol DNA; 10 mM HEPES pH 7.6, 1 mM EDTA, 2 mM DTT, 50 mM KCl, 0.05% Triton X-100, 5% glycerol; 20 min room temperature; […]
Details: protein: recombinant; tags: N-terminal His6 (pET28a); chain copies: 2; label: none (GelRed stain); blunt

Row | Binder | binding result
1 | B1 | no binding
2 | B2 | binds
